Assay results reported in the Human Domainome abundance scans (Beltran et al. 2025).
± gives the uncertainty stated by the source.

Experiment: abundance fitness (aPCA) (normalised: wild type 0, dead -1); higher = more abundant; growth selection in yeast, the domain comes from the species named
Details: Homo sapiens

Substance | abundance fitness
BAG family molecular chaperone regulator 3 Q33G, O95817 | 0.128 ± 0.059
BAG family molecular chaperone regulator 3 Q33H, O95817 | -0.708 ± 0.49
BAG family molecular chaperone regulator 3 Q33I, O95817 | -0.499 ± 0.35
BAG family molecular chaperone regulator 3 Q33K, O95817 | 0.035 ± 0.21
BAG family molecular chaperone regulator 3 Q33M, O95817 | -0.29 ± 0.3
BAG family molecular chaperone regulator 3 Q33N, O95817 | -0.357 ± 0.29
BAG family molecular chaperone regulator 3 Q33P, O95817 | -0.591 ± 0.3
BAG family molecular chaperone regulator 3 Q33S, O95817 | -0.265 ± 0.14
BAG family molecular chaperone regulator 3 Q33T, O95817 | -0.583 ± 0.3
BAG family molecular chaperone regulator 3 Q33V, O95817 | -0.428 ± 0.068
BAG family molecular chaperone regulator 3 Q33W, O95817 | -0.384 ± 0.081
BAG family molecular chaperone regulator 3 Q33Y, O95817 | -0.545 ± 0.46
BAG family molecular chaperone regulator 3 R19A, O95817 | -0.071 ± 0.11
BAG family molecular chaperone regulator 3 R19C, O95817 | -0.341 ± 0.19
BAG family molecular chaperone regulator 3 R19D, O95817 | -0.499 ± 0.31
BAG family molecular chaperone regulator 3 R19E, O95817 | 0.208 ± 0.15
BAG family molecular chaperone regulator 3 R19F, O95817 | -0.743 ± 0.32
BAG family molecular chaperone regulator 3 R19G, O95817 | -0.35 ± 0.12
BAG family molecular chaperone regulator 3 R19H, O95817 | -0.399 ± 0.18
BAG family molecular chaperone regulator 3 R19I, O95817 | 0.367 ± 0.17
BAG family molecular chaperone regulator 3 R19K, O95817 | 0.042 ± 0.11
BAG family molecular chaperone regulator 3 R19L, O95817 | -0.455 ± 0.17
BAG family molecular chaperone regulator 3 R19M, O95817 | -0.37 ± 0.28

Substance | abundance fitness
BAG family molecular chaperone regulator 3 R19N, O95817 | -0.125 ± 0.13
BAG family molecular chaperone regulator 3 R19P, O95817 | -0.253 ± 0.23
BAG family molecular chaperone regulator 3 R19Q, O95817 | -0.333 ± 0.084
BAG family molecular chaperone regulator 3 R19S, O95817 | -0.006 ± 0.062
BAG family molecular chaperone regulator 3 R19T, O95817 | -0.169 ± 0.096
BAG family molecular chaperone regulator 3 R19V, O95817 | -0.221 ± 0.073
BAG family molecular chaperone regulator 3 R19W, O95817 | -0.342 ± 0.073
BAG family molecular chaperone regulator 3 R19Y, O95817 | -0.27 ± 0.094
BAG family molecular chaperone regulator 3 R45C, O95817 | -0.165 ± 0.17
BAG family molecular chaperone regulator 3 R45D, O95817 | -0.557 ± 0.32
BAG family molecular chaperone regulator 3 R45E, O95817 | -0.422 ± 0.2
BAG family molecular chaperone regulator 3 R45F, O95817 | -0.4 ± 0.087
BAG family molecular chaperone regulator 3 R45G, O95817 | -0.087 ± 0.085
BAG family molecular chaperone regulator 3 R45H, O95817 | 0.367 ± 0.25
BAG family molecular chaperone regulator 3 R45K, O95817 | -0.043 ± 0.077
BAG family molecular chaperone regulator 3 R45L, O95817 | -0.594 ± 0.18
BAG family molecular chaperone regulator 3 R45M, O95817 | -0.442 ± 0.2
BAG family molecular chaperone regulator 3 R45N, O95817 | 0.54 ± 0.18
BAG family molecular chaperone regulator 3 R45P, O95817 | -0.321 ± 0.35
BAG family molecular chaperone regulator 3 R45Q, O95817 | 0.541 ± 0.17
BAG family molecular chaperone regulator 3 R45S, O95817 | -0.354 ± 0.084
BAG family molecular chaperone regulator 3 R45T, O95817 | -0.409 ± 0.28
BAG family molecular chaperone regulator 3 R45V, O95817 | -0.692 ± 0.091

Substance | abundance fitness
BAG family molecular chaperone regulator 3 R45W, O95817 | -0.843 ± 0.18
BAG family molecular chaperone regulator 3 R45Y, O95817 | -0.229 ± 0.22
BAG family molecular chaperone regulator 3 R53A, O95817 | -0.422 ± 0.14
BAG family molecular chaperone regulator 3 R53C, O95817 | -0.551 ± 0.23
BAG family molecular chaperone regulator 3 R53D, O95817 | -0.822 ± 0.49
BAG family molecular chaperone regulator 3 R53E, O95817 | -0.646 ± 0.14
BAG family molecular chaperone regulator 3 R53G, O95817 | -0.295 ± 0.09
BAG family molecular chaperone regulator 3 R53H, O95817 | -0.611 ± 0.3
BAG family molecular chaperone regulator 3 R53K, O95817 | -0.424 ± 0.28
BAG family molecular chaperone regulator 3 R53L, O95817 | -0.732 ± 0.09
BAG family molecular chaperone regulator 3 R53M, O95817 | -0.296 ± 0.25
BAG family molecular chaperone regulator 3 R53N, O95817 | -0.257 ± 0.44
BAG family molecular chaperone regulator 3 R53P, O95817 | -0.653 ± 0.083
BAG family molecular chaperone regulator 3 R53S, O95817 | -0.523 ± 0.18
BAG family molecular chaperone regulator 3 R53T, O95817 | -0.225 ± 0.25
BAG family molecular chaperone regulator 3 R53V, O95817 | -0.715 ± 0.22
BAG family molecular chaperone regulator 3 R53W, O95817 | -0.861 ± 0.14
BAG family molecular chaperone regulator 3 R53Y, O95817 | -0.788 ± 0.14
BAG family molecular chaperone regulator 3 S14A, O95817 | -0.285 ± 0.14
BAG family molecular chaperone regulator 3 S14C, O95817 | -0.542 ± 0.42
BAG family molecular chaperone regulator 3 S14D, O95817 | 0.102 ± 0.14
BAG family molecular chaperone regulator 3 S14E, O95817 | 0.233 ± 0.085
BAG family molecular chaperone regulator 3 S14F, O95817 | -0.528 ± 0.28

Substance | abundance fitness
BAG family molecular chaperone regulator 3 S14G, O95817 | -0.641 ± 0.1
BAG family molecular chaperone regulator 3 S14H, O95817 | 0.623 ± 0.12
BAG family molecular chaperone regulator 3 S14I, O95817 | 0.059 ± 0.23
BAG family molecular chaperone regulator 3 S14K, O95817 | 0.023 ± 0.28
BAG family molecular chaperone regulator 3 S14L, O95817 | 0.091 ± 0.11
BAG family molecular chaperone regulator 3 S14M, O95817 | -0.022 ± 0.2
BAG family molecular chaperone regulator 3 S14N, O95817 | -0.156 ± 0.17
BAG family molecular chaperone regulator 3 S14P, O95817 | -0.269 ± 0.19
BAG family molecular chaperone regulator 3 S14Q, O95817 | 0.677 ± 0.15
BAG family molecular chaperone regulator 3 S14T, O95817 | -0.084 ± 0.19
BAG family molecular chaperone regulator 3 S14V, O95817 | -0.219 ± 0.14
BAG family molecular chaperone regulator 3 S14W, O95817 | -0.576 ± 0.23
BAG family molecular chaperone regulator 3 S14Y, O95817 | -0.113 ± 0.15
BAG family molecular chaperone regulator 3 S44C, O95817 | -0.688 ± 0.31
BAG family molecular chaperone regulator 3 S44D, O95817 | -0.557 ± 0.47
BAG family molecular chaperone regulator 3 S44E, O95817 | -0.489 ± 0.17
BAG family molecular chaperone regulator 3 S44F, O95817 | -0.682 ± 0.29
BAG family molecular chaperone regulator 3 S44G, O95817 | -0.483 ± 0.11
BAG family molecular chaperone regulator 3 S44H, O95817 | -0.481 ± 0.37
BAG family molecular chaperone regulator 3 S44K, O95817 | -0.7 ± 0.43
BAG family molecular chaperone regulator 3 S44L, O95817 | -0.246 ± 0.17
BAG family molecular chaperone regulator 3 S44M, O95817 | -0.371 ± 0.15
